The nature of assay [1]: Binding of P-EGFs to TiO2 plate, anti-EGF antibody chemiluminescence detection. As to conditions: about 2.0 ng, 10 μl in TBS pH 7.5; washed 3 times with TBS-T; anti-human EGF antibody and HRP secondary. As to the method:
Subsequently, in accordance with a scheme in the left in FIG. 4-2, various P-EGF solutions (about 2.0 ng, 10 μl in TBS, pH 7.5) were added on a TiO2 plate (a plate produced by vapor deposition of titanium on the surface of a glass plate with a diameter of 15 mm and a thickness of 0.6 mm (manufactured by Matsunami Glass Ind., Ltd.) (the vapor deposition step was requested to Osaka Vacuum Industrial Co., Ltd.) was used); and a washing operation (TBS-T buffer, pH 7.5) was repeated 3 times. And, after blocking with 0.1% BSA solution, an anti-human EGF antibody was added as a primary antibody. Furthermore, after the washing operation (TBS-T buffer, pH 7.5) was repeated 3 times, an anti-mouse IgG antibody HRP conjugate was added as a secondary antibody. At the end, using a luminescent phenomenon by a reaction between a chemiluminescence reagent and HRP as an index, the presence of protein immobilized on the TiO2 plate was detected. […]
First, in accordance with a scheme in the left in FIG. 7-1, various P-EGF solutions (about 2.0 ng, 10 μl in TBS, pH 7.5) were added on a TiO2 plate and a washing operation (TBS-T buffer, pH 7.5) was repeated 3 times. […] At the end, using a luminescent phenomenon by a reaction between a chemiluminescence reagent and HRP as an index, the presence of protein immobilized on the TiO2 plate was detected.

The subject of assay [2] is NRK-49F fibroblasts. The assay can be described thus: NRK-49F fibroblast proliferation on sTOP1-EGF immobilized TiO2 plate. The format is cell-based. To be noted: about 5.0 ng immobilized; ca. 5,000 cells seeded; 6 days; 1% FBS DMEM; vs TiO2 plate with EGF alone added. As to the method:
First, in accordance with a scheme in the left in FIG. 7-2, sTOP1-EGF solution (about 5.0 ng, 12 μl in TBS, pH 7.5) was added onto the TiO2 plate and a washing operation (TBS-T buffer, pH 7.5) was then repeated 3 times. And, by blocking with 0.1% BSA solution, a “sTOP1-EGF immobilized TiO2 plate” was prepared. And then, ca. 5,000 NRK-49F fibroblasts were seeded on the sTOP1-EGF immobilized TiO2 plate, cultured for 6 days (1% FBS containing DMEM medium was used), and subjected to microscopy (cells were not stained).

B1: MQAYYNYYSNYYGRSYSSDGQLGQFEGNSDSECPLSHDGYCLHDGVCMYI EALDKYACNCVVGYIGERCQYRDLKWWELR (peptide)
chain: MQAYYNYYSNYYGRSYSSDGQLGQFEGNSDSECPLSHDGYCLHDGVCMYIEALDKYACNCVVGYIGERCQYRDLKWWELR
notes: chemically synthesized TOP1-EGF composed of 80 amino acids, made by peptide solid phase method
Turning to B1, in assay [1], the “TiO2 plate binding (luminescent phenomenon of protein immobilized on the plate)” value is recorded as “the luminescent phenomenon could be confirmed”. Besides, the “Proliferation of NRK-49F fibroblasts on the immobilized TiO2 plate (microscopy)” value in assay [2] is given as “markedly proliferated”.

The values above are taken from US8697655B2, “Method of selecting polypeptide sequence, and metal oxide or silicon-containing compound binding peptide and use thereof” (Riken, priority 2010, dated 2014).
